From publication doi:10.1101/197186 (bioRxiv, 2017) come the findings set out here.

As a reminder, the stoichiometry N is a count of units in the complex or per binding partner.

This series deals with the molecule itself. Kind of series: SEC.

B1: human MORC2(1-603) S87L (domain or fragment)
chain: MAFTNYSSLNRAQLTFEYLHTNSTTHEFLFGALAELVDNARDADATRIDIYAERREDLRGGFMLCFLDDGAGMDPSDAASVIQFGKLAKRTPESTQIGQYGNGLKSGSMRIGKDFILFTKKEDTMTCLFLSRTFHEEEGIDEVIVPLPTWNARTREPVTDNVEKFAIETELIYKYSPFRTEEEVMTQFMKIPGDSGTLVIIFNLKLMDNGEPELDIISNPRDIQMAETSPEGTKPERRSFRAYAAVLYIDPRMRIFIHGHKVQTKRLSCCLYKPRMYKYTSSRFKTRAEQEVKKAEHVARIAEEKAREAESKARTLEVRLGGDLTRDSRVMLRQVQNRAITLRREADVKKRIKEAKQRALKEPKELNFVFGVNIEHRDLDGMFIYNCSRLIKMYEKVGPQLEGGMACGGVVGVVDVPYLVLEPTHNKQDFADAKEYRHLLRAMGEHLAQYWKDIAIAQRGIIKFWDEFGYLSANWNQPPSSELRYKRRRAMEIPTTIQCDLCLKWRTLPFQLSSVEKDYPDTWVCSMNPDPEQDRCEASEQKQKVPLGTFRKDMKTQEEKQKQLTEKIRQQQEKLEALQKTTPIRSQADLKKLPLEVTTRPST
Take B1: the “stoichiometry N” value came to 2.
